Patent publication US20220249633A1

Target: HLA-A*24 (human)
Test: UV-exchange ELISA, exchange yield grade

Row | Binder | peptide exchange yield
1 | VYLPKIPSW [… (SEQ ID NO: 236)] | 50 to 75%
2 | SFTKTSPNF [… (SEQ ID NO: 247)] | 50 to 75%
3 | KYPDIASPTF [… (SEQ ID NO: 250)] | 20 to 49%
4 | YYFFVQEKI [… (SEQ ID NO: 240)] | 50 to 75%
5 | VFGKSAYLF [… (SEQ ID NO: 256)] | 50 to 75%
6 | VHFEDTGKTLLF [… (SEQ ID NO: 244)] | 50 to 75%
7 | VYSSQFETI [… (SEQ ID NO: 262)] | > 75%
8 | AFGQETNVPLNNF [… (SEQ ID NO: 252)] | > 75%
9 | VYAIFRILL [… (SEQ ID NO: 239)] | 50 to 75%
10 | VYTKALSSL [… (SEQ ID NO: 251)] | 50 to 75%
11 | VYGEPRELL [… (SEQ ID NO: 242)] | 50 to 75%
12 | VYMNVMTRL [… (SEQ ID NO: 260)] | > 75%
13 | AYAQLGYLL [… (SEQ ID NO: 258)] | 50 to 75%
14 | SYLELANTL [… (SEQ ID NO: 243)] | 50 to 75%
15 | RYHPTTCTI [… (SEQ ID NO: 249)] | > 75%
16 | GYIKLINFI [… (SEQ ID NO: 261)] | > 75%
17 | YFIKSPPSQLF [… (SEQ ID NO: 259)] | 20 to 49%
18 | LYPQLFVVL [… (SEQ ID NO: 245)] | 50 to 75%
19 | VYKDSIYYI [… (SEQ ID NO: 235)] | 50 to 75%
20 | KYLSVQLTL [… (SEQ ID NO: 246)] | 20 to 49%
21 | AFPTFSVQL [… (SEQ ID NO: 248)] | > 75%
22 | RYILENHDF [… (SEQ ID NO: 263)] | 50 to 75%
23 | IYGFFNENF [… (SEQ ID NO: 253)] | 50 to 75%
24 | SYVKVLHHL [… (SEQ ID NO: 241)] | 50 to 75%
25 | KYVGQLAVL [… (SEQ ID NO: 237)] | 50 to 75%
26 | KYLESSATF [… (SEQ ID NO: 254)] | 50 to 75%
27 | VYQKIILKF [… (SEQ ID NO: 255)] | 50 to 75%
28 | IFIDNSTQPLHF [… (SEQ ID NO: 257)] | 50 to 75%

Continued, values first:

Row | peptide exchange yield | Binder
29 | 20 to 49% | SFLNIEKTEILF [… (SEQ ID NO: 267)]
30 | 50 to 75% | IYGEKLQFIF [… (SEQ ID NO: 273)]
31 | > 75% | KQLDIANYELF [… (SEQ ID NO: 274)]
32 | > 75% | SYLNEAFSF [… (SEQ ID NO: 265)]
33 | > 75% | LYTETRLQF [… (SEQ ID NO: 264)]
34 | 50 to 75% | VYVGDALLHAI [… (SEQ ID NO: 285)]
35 | > 75% | QYLDVLHAL [… (SEQ ID NO: 276)]
36 | > 75% | TYNPNLQDKL [… (SEQ ID NO: 280)]
37 | 50 to 75% | VWLPASVLF [… (SEQ ID NO: 279)]
38 | > 75% | RFLMKSYSF [… (SEQ ID NO: 271)]
39 | 50 to 75% | NYLVDPVTI [… (SEQ ID NO: 282)]
40 | > 75% | FFHEGQYVF [… (SEQ ID NO: 289)]
41 | > 75% | KYGTLDVTF [… (SEQ ID NO: 275)]
42 | > 75% | KYGDFKLLEF [… (SEQ ID NO: 290)]
43 | 50 to 75% | EYQEIFQQL [… (SEQ ID NO: 283)]
44 | 50 to 75% | YYSQESKVLYL [… (SEQ ID NO: 270)]
45 | 20 to 49% | VYPDTVALTF [… (SEQ ID NO: 288)]
46 | 50 to 75% | IYNPNLLTASKF [… (SEQ ID NO: 287)]
47 | 50 to 75% | NYSPGLVSLIL [… (SEQ ID NO: 281)]
48 | > 75% | RYVFPLPYL [… (SEQ ID NO: 272)]
49 | 50 to 75% | DYLKDPVTI [… (SEQ ID NO: 284)]
50 | 50 to 75% | FYTFPFQQL [… (SEQ ID NO: 277)]
51 | 50 to 75% | KYTDWTEFL [… (SEQ ID NO: 266)]
52 | 50 to 75% | QYPYLQAFF [… (SEQ ID NO: 269)]
53 | > 75% | SYGTILSHI [… (SEQ ID NO: 286)]
54 | 20 to 49% | IFITKALQI [… (SEQ ID NO: 268)]
